{"source": "ChEMBL document CHEMBL2429837", "about": "“Identification of cryptotanshinone as an inhibitor of oncogenic protein tyrosine phosphatase SHP2 (PTPN11)” (J Med Chem, 2013)", "proteins": {"B1": {"name": "Tyrosine-protein phosphatase non-receptor type 11 (Homo sapiens), Q06124 (protein)", "chain": "MTSRRWFHPNITGVEAENLLLTRGVDGSFLARPSKSNPGDFTLSVRRNGAVTHIKIQNTGDYYDLYGGEKFATLAELVQYYMEHHGQLKEKNGDVIELKYPLNCADPTSERWFHGHLSGKEAEKLLTEKGKHGSFLVRESQSHPGDFVLSVRTGDDKGESNDGKSKVTHVMIRCQELKYDVGGGERFDSLTDLVEHYKKNPMVETLGTVLQLKQPLNTTRINAAEIESRVRELSKLAETTDKVKQGFWEEFETLQQQECKLLYSRKEGQRQENKNKNRYKNILPFDHTRVVLHDGDPNEPVSDYINANIIMPEFETKCNNSKPKKSYIATQGCLQNTVNDFWRMVFQENSRVIVMTTKEVERGKSKCVKYWPDEYALKEYGVMRVRNVKESAAHDYTLRELKLSKVGQGNTERTVWQYHFRTWPDHGVPSDPGGVLDFLEEVHHKQESIMDAGPVVVHCSAGIGRTGTFIVIDILIDIIREKGVDCDIDVPKTIQMVRSQRSGMVQTEAQYRFIYMAVQHYIETLQRRIEEEQKSKRKGHEYTNIKYSLADQTSGDQSPLPPCTPTPPCAEMREDSARVYENVGLMQQQKSFR"}}, "details_in_all_cases": "Homo sapiens; 25 uM", "key": {"[1]": {"substrate": "C[C@H]1COC2=C1C(=O)C(=O)c1c2ccc2c1CCCC2(C)C"}, "[2]": {"substrate": "C[C@H]1COC2=C1C(=O)C(=O)c1c2ccc2c1CCCC2(C)C", "remark": "listed apart in the source"}, "[3]": {"substrate": "C[C@H]1COC2=C1C(=O)C(=O)c1c2ccc2c1CCCC2(C)C", "remark": "listed apart in the source"}, "[4]": {"substrate": "C[C@H]1COC2=C1C(=O)C(=O)c1c2ccc2c1CCCC2(C)C", "remark": "listed apart in the source"}}}
{"protein": "B1", "values": [{"measurement": "Km", "setting": "[1]", "result": 170, "unit": "µM"}, {"measurement": "Vmax", "setting": "[2]", "result": 6.96, "unit": "µM/min"}, {"measurement": "kcat/Km", "setting": "[3]", "result": 2150, "unit": "M⁻¹ s⁻¹"}, {"measurement": "kcat", "setting": "[4]", "result": 0.36, "unit": "s⁻¹"}]}
